Laboratory results published in patent publication US20250188131A1 (ICOSAVAX, published 2025).
Where a chain is given by its changes, count along the chain named.

B1: RSV/B.171 (other)
chain: QNITEEFYQSTCSAVSRGYLSALRTGWYTSVITIELSNIKETKCNGTDTKVKLIKQELDKYKNAVTELQLLMQNTPAVNNRARREAPQYMNYTINTTKNLNVSISKKRKRRFLGFLLGVGSAIASGIAVCKVLHLEGEVNKIKNALQLTNKAVVSLSNGVSVLTFRVLDLKNYINNQLLPMLNRQSCRISNIETVIEFQQKNSRLLEITREFSVNAGVTTPLSTYMLTNSELLSLINDMPITNDQKKLMSSNVQIVRQQSYSIMCIIKEEVLAYVVQLPIYGVIDTPCWKLHTSPLCTTNIKEGSNICLTRTDRGWYCDNAGSVSFFPQADTCKVQSNRVFCDTMNSLTLPSEVSLCNTDIFNSKYDCKIMTSKDDISSSVITSLGAIVSCYGKTKCTASNKNRGIIKTFSNGCDYVSNKGVDTVSVGNTLYYVNKLEGKNLYVKGEPIINYYDPLVFPSDRFAASISQVNEAINQSREIIRAINIVRKIASEKGSGGSGSGSGGSEKAAKAEEAARKMEELFKKHKIVAVLRANSVEEAIEKAVAVFAGGVHLIEITFTVPDADTVIKALSVLKEKGAIIGAGTVTSVEQARKAVESGAEFIVSPHLDEEISQFAKEKGVFYMPGVMTPTELVKAMKLGHTILKLFPGEVVGPQFVKAMKGPFPNVKFVPTGGVNLDNVAEWFKAGVLAVGVGSALVKGTPDEVREKAKAFVEKIRGATELEHHHHHH
B2: RSV/B.147 (other)
chain: B1 chain with D375T, A464D
B3: RSV/B.189 (other)
chain: B1 chain with D461A, F463W
B4: RSV/B.160 (other)
chain: B1 chain with T224P, F463W
B5: RSV/B.195 (other)
chain: B1 chain with D375T, R462E, A464D, A473K
B6: RSV/B.172 (other)
chain: B1 chain with T224P
B7: RSV/B.178 (other)
chain: B1 chain with T224P, D461A
B8: RSV/B.099 (other)
chain: QNITEEFYQSTCSAVSRGYLSALRTGWYTSVITIELSNIKEVKCNGTDTKVKLIKQELDKYKNAVTELQLLMQNTPAVNNRARREAPQYMNYTINTTKNLNVSISKKRKRRFLGFLLGVGSAIASGIAVCKVLHLEGEVNKIKNALQLTNKAVVSLSNGVSVLTFRVLDLKNYINNQLLPMLNRQSCRISNIETVIEFQQKNSRLLEITREFSVNAGVTTPLSTYMLTNSELLSLINDMPITNDQKKLMSSNVQIVRQQSYSIMCIIKEEVLAYVVQLPIYGVIDTPCWKLHTSPLCTTNIKEGSNICLTRTDRGWYCDNAGSVSFFPQADTCKVQSNRVFCDTMNSLTLPSEVSLCNTDIFNSKYDCKIMTSKTDISSSVITSLGAIVSCYGKTKCTASNKNRGIIKTFSNGCDYVSNKGVDTVSVGNTLYYVNKLEGKNLYVKGEPIINYYDPLVFPSDRFDASISQVNEAINQSLAFIRRSDELLGSGGSGSGSGGSEKAAKAEEAARKMEELFKKHKIVAVLRANSVEEAIEKAVAVFAGGVHLIEITFTVPDADTVIKALSVLKEKGAIIGAGTVTSVEQARKAVESGAEFIVSPHLDEEISQFAKEKGVFYMPGVMTPTELVKAMKLGHTILKLFPGEVVGPQFVKAMKGPFPNVKFVPTGGVNLDNVAEWFKAGVLAVGVGSALVKGTPDEVREKAKAFVEKIRGATELEHHHHHH
B9: RSV/B.100 (other)
chain: B8 chain with T224P
B10: RSV/B.093 (other)
chain: B8 chain with V42T, T375D, D461A, F463W, D464A
B11: RSV/B.123 (other)
chain: B8 chain with T375D, D464A
B12: RSV/B.002 (other)
chain: B8 chain with V42T, R462E, A473K
notes: DS-Cav1 control; also called DS-Cav1 RSV/B.002
B13: RSV/B.081 (other)
chain: B8 chain with V42T, T375D, D461A, D464A
B14: RSV/B.148 (other)
chain: QNITEEFYQSTCSAVSRGYLSALRTGWYTSVITIELSNIKETKCNGTDTKVKLIKQELDKYKNAVTELQLLMQNTPAVNNRARREAPQYMNYTINTTKNLNVSISKKRKRRFLGFLLGVGSAIASGIAVCKVLHLEGEVNKIKNALQLTNKAVVSLSNGVSVLTFRVLDLKNYINNQLLPMLNRQSCRISNIETVIEFQQKNSRLLEITREFSVNAGVTTPLSPYMLTNSELLSLINDMPITNDQKKLMSSNVQIVRQQSYSIMCIIKEEVLAYVVQLPIYGVIDTPCWKLHTSPLCTTNIKEGSNICLTRTDRGWYCDNAGSVSFFPQADTCKVQSNRVFCDTMNSLTLPSEVSLCNTDIFNSKYDCKIMTSKTDISSSVITSLGAIVSCYGKTKCTASNKNRGIIKTFSNGCDYVSNKGVDTVSVGNTLYYVNKLEGKNLYVKGEPIINYYDPLVFPSDRFDASISQVNEAINQSREIIRAINIVRKIASEKGSGGSGSGSGGSEKAAKAEEAARKMEELFKKHKIVAVLRANSVEEAIEKAVAVFAGGVHLIEITFTVPDADTVIKALSVLKEKGAIIGAGTVTSVEQARKAVESGAEFIVSPHLDEEISQFAKEKGVFYMPGVMTPTELVKAMKLGHTILKLFPGEVVGPQFVKAMKGPFPNVKFVPTGGVNLDNVAEWFKAGVLAVGVGSALVKGTPDEVREKAKAFVEKIRGATELLEHHHHHH

target: T1, I53-50B.4PosT1; experiment: in vitro assembly with I53-50B, DLS
T1 construct: also called second component; CompB
Description: Selected constructs were incubated with a second component, I53-50B, to form nanostructures. Dynamic Light Scattering (DLS) and negative-stain electron microscopy (nsEM) confirm assembly as nanostructure. A representative electron micrograph is shown in FIG. 5 (RSV/B.195, having the DS-Cav).
Assembly: Molar concentrations for RSV/B or RSV/A trimers fused to I53-50AΔcys and I53-50B (second component, using the sequence of I53-50B.4PosT1, SEQ ID NO:46) were determined using UV-Vis spectroscopy. Absorbance values at 280 nm were collected and divided by calculated molar extinction coefficients (ExPASy). The assembly reaction to produce RSVB antigen-bearing nanostructures was performed in vitro with the addition of components as follows: RSV F trimers fused to I53-50AΔcys were added to PCR tubes in 1.5× molar excess of I53-50B, then assembly buffer (20 mM Tris pH 7.4, 250 mM NaCl, 4% sucrose) was added to the sample in PCR tubes, and finally I53-50B was added to the reaction to bring the assemblies to a final concentration of 7.5 μM and a final volume of 47.5 μL. The reaction was incubated at ambient temperature for ˜30 minutes with gentle rocking prior to subsequent measurement by dynamic light scattering (DLS). All constructs were assembly competent under the conditions tested. Prior to nsEM analysis or immunogenicity studies, assembled nanostructures were further purified by size exclusion chromatography over a Superose 6 Increase 10/300 GL column into 20 mM Tris pH 7.4, 250 mM NaCl, 4% sucrose.

Binder	binding result
B1	binds
B2	binds
B3	binds
B4	binds
B5	binds
B6	binds
B7	binds
B8	binds
B9	binds
B10	binds
B11	binds
B12	binds
B13	binds
B14	binds
